Source: article doi:10.1101/2021.10.21.465318
Like-named read-outs stand apart in the source and are kept apart here.

How the values were obtained:
Assay in all cases: FRET
[1] = molecular target: T1, HsMSH2;HsMSH6 (sortase/Cy3) (Homo sapiens;Homo sapiens, UniProt P43246;P52701 1-934;1-1360, |)
[2] = molecular target: T2, HsMSH2;HsMSH3 (sortase/Cy3) (Homo sapiens;Homo sapiens, UniProt P43246;P20585 1-934;1-1137, |)
[3] = molecular target: T2, HsMSH2;HsMSH3 (sortase/Cy3); remark: listed apart in the source
[4] = molecular target: T1, HsMSH2;HsMSH6 (sortase/Cy3); remark: listed apart in the source
[5] = molecular target: T2, HsMSH2;HsMSH3 (sortase/Cy3); remark: listed apart in the source
[6] = molecular target: T1, HsMSH2;HsMSH6 (sortase/Cy3); remark: listed apart in the source

B1: 41-mer G/T Cy5 (dsDNA)
DNA 1: GCTTAGGATCATCGAGGATCGAGCTCGGTGCAATTCAGCGG
DNA 2: CCGCTGAATTGCACCGAGCTTGATCCTGCATGATCCTAAGC
modifications: amino-C6 dT at position 12 of top strand
Does B1 bind [1]?
Result: binds

Does B1 bind [2]?
Result: no binding

B2: 41-mer G/+(CA)4 Cy5 (dsDNA)
DNA 1: GCTTAGGATCATCGAGGATCGAGCTCGGTGCAATTCAGCGG
DNA 2: CCGCTGAATTGCACCGAGCTCACACACACGATCCTCGATGATCCTAAGC
modifications: amino-C6 dT at position 12 of top strand
Does B2 bind [3]?
Result: binds

Does B2 bind [4]?
Result: binds

B3: 41-mer G/C Cy5 (dsDNA)
DNA 1: GCTTAGGATCATCGAGGATCGAGCTCGGTGCAATTCAGCGG
DNA 2: CCGCTGAATTGCACCGAGCTCGATCCTCGATGATCCTAAGC
modifications: amino-C6 dT at position 12 of top strand
Does B3 bind [5]?
Result: no binding

Does B3 bind [6]?
Result: no binding
